Source: patent publication US20130243795A1 (Janssen / Centocor, published 2013)

What was measured:
[1] = biological target: Human CD27, full length on the cell surface (human, UniProt P26842 21-260); test: cell-based or functional assay
[2] = biological target: T1, Human CD27 ECD truncated (ECD 1-121, cleavage site, His6) (human); test: ELISA signal for binding to CD27, initial small culture supernatants
T1 construct: also called human CD27 ECD with His Tag; CD27-His
T1 chain: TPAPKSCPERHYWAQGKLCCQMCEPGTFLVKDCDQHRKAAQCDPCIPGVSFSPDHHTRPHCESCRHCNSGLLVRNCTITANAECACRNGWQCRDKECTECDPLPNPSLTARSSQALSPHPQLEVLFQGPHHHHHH

[3] = biological target: T2, Human CD27 ECD, monomeric soluble (construct limits not stated) (human, UniProt P26842 20-191); test: Biacore SPR, purified mAb, CD27 ECD
T2 construct: extracellular domain; target of the Biacore assays; also called monomeric soluble CD27; CD27-His

[4] = biological target: T3, Human CD27 ECD (ECD 1-173, His6) (human, UniProt P26842 21-193, biotinylated on amine residues (NHS-ester) where used biotinylated); test: single point Fab ELISA
T3 construct: also called biotinylated human CD27 ECD

Human CD27, full length on the cell surface, sequence (P26842 21-260 H233R): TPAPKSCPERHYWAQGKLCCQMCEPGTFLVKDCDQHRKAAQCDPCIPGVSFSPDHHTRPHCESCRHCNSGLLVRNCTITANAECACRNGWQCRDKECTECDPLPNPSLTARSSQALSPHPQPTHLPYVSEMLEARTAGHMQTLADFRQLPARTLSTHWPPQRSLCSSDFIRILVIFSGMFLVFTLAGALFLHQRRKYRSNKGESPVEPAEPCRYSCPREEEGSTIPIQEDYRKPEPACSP
T2 sequence (P26842 20-191): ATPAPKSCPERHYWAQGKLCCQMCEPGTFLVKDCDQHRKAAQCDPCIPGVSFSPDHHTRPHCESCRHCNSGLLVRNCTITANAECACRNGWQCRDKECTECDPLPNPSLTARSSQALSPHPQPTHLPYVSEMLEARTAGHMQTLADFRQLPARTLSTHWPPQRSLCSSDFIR

B1: M489 (antibody, IgG1, V domains shown)
VH: QVQLVESGGGLVKPGGSLRLSCAASGFTFSSYGMSWIRQAPGKGLEWVSYIDEGGGQTIYPDSVKGRFTISRDNAKNSLYLQMNSLRAEDTAVYYCARHRGNPFDYWGQGTLVTVSS
VL: DIQMTQSPSSLSASVGDRVTITCRASKSVSLDRWSFMHWYQQKPGKAPKLLIYLASNLESGVPSRFSGSGSGTDFTFTISSLQPEDIATYYCQHSRELPWTFGQGTKVEIK
notes: also called H227/L250
Q: What does the source list for B1?
A: NFkB IC50 [1]: 0.041 nM; ELISA signal [2]: 0.96; Kd [3]: 0.0241 nM

B2: M526 (antibody, IgG1, V domains shown)
VH: QVQLVESGGGLVKPGGSLRLSCAASGFTFSSYGMSWIRQAPGKGLEWVSYIDRGGGVTIYPDSVKGRFTISRDNAKNSLYLQMNSLRAEDTAVYYCARHRGNPFDYWGQGTLVTVSS
VL: DIQMTQSPSSLSASVGDRVTITCRASKSVSEGRWSFMHWYQQKPGKAPKLLIYVASRLESGVPSRFSGSGSGTDFTFTISSLQPEDIATYYCQHSRELPWTFGQGTKVEIK
notes: also called H222/L249
Q: Which “NFkB IC50” value [1] does the source give for B2 here?
A: 0.006 nM

Q: And the ELISA signal [2]?
A: 0.69

Q: What about the Kd [3] of the same binder?
A: 0.171 nM

B3: M488 (antibody, IgG1, V domains shown)
VH: QVQLVESGGGLVKPGGSLRLSCAASGFTFSSYGMSWIRQAPGKGLEWVSYIDEGGGQTIYPDSVKGRFTISRDNAKNSLYLQMNSLRAEDTAVYYCARHRGNPFDYWGQGTLVTVSS
VL: DIQMTQSPSSLSASVGDRVTITCRASKSVSEGRWSFMHWYQQKPGKAPKLLIYVASRLESGVPSRFSGSGSGTDFTFTISSLQPEDIATYYCQHSRELPWTFGQGTKVEIK
notes: also called H227/L249
Q: How did the “NFkB IC50” value [1] turn out when B3 was run?
A: 0.023 nM

Q: What about the ELISA signal [2] of the same binder?
A: 0.92

Q: What about the Kd [3] of the same binder?
A: 0.0394 nM

B4: M427 (antibody, IgG1, V domains shown)
VH: QVQLVESGGGLVKPGGSLRLSCAASGFTFSSYGMSWIRQAPGKGLEWVSYIDEGGGQTIYPDSVKGRFTISRDNAKNSLYLQMNSLRAEDTAVYYCARHRGNPFDYWGQGTLVTVSS
VL: DIQMTQSPSSLSASVGDRVTITCRASKSVSAWGYSFMHWYQQKPGKAPKLLIYVASRLESGVPSRFSGSGSGTDFTFTISSLQPEDIATYYCQHSRELPWTFGQGTKVEIK
notes: also called H227/L244; C27H227/C27L244
Q: Which results are given for B4?
A: NFkB IC50 [1]: 0.019 nM; ELISA signal [2]: 0.93; Kd [3]: 0.0417 nM

B5: M429 (antibody, IgG1, V domains shown)
VH: QVQLVESGGGLVKPGGSLRLSCAASGFTFSSYGMSWIRQAPGKGLEWVSYIDEGGGQTIYPDSVKGRFTISRDNAKNSLYLQMNSLRAEDTAVYYCARHRGNPFDYWGQGTLVTVSS
VL: DIQMTQSPSSLSASVGDRVTITCRASKSVSHVRWSFMHWYQQKPGKAPKLLIYLASKLESGVPSRFSGSGSGTDFTFTISSLQPEDIATYYCQHSRELPWTFGQGTKVEIK
notes: also called H227/L245
Q: Which results are given for B5?
A: NFkB IC50 [1]: 0.042 nM; ELISA signal [2]: 0.86; Kd [3]: 0.0304 nM

B6: M492 (antibody, IgG1, V domains shown)
VH: QVQLVESGGGLVKPGGSLRLSCAASGFTFSSYSMSWIRQAPGKGLEWVSYIDAGGGFTIYPDSVKGRFTISRDNAKNSLYLQMNSLRAEDTAVYYCARHRGNPFDYWGQGTLVTVSS
VL: DIQMTQSPSSLSASVGDRVTITCRASKSVSEGRWSFMHWYQQKPGKAPKLLIYVASRLESGVPSRFSGSGSGTDFTFTISSLQPEDIATYYCQHSRELPWTFGQGTKVEIK
notes: also called H228/L249
Q: B6 was tested. Which “NFkB IC50” value [1] did it give?
A: 0.015 nM

Q: And the ELISA signal [2]?
A: 0.77

Q: And the Kd [3]?
A: 0.142 nM

B7: F18 (Fab, V domains shown)
VH: EVQLLESGGGLVQPGGSLRLSCAASGFTFSSYTMSWVRQAPGKGLEWVSAIDHGGGRTYYPDSVKGRFTISRDNSKNTLYLQMNSLRAEDTAVYYCARHRGNPFDYWGQGTLVTVSS
VL: DIQMTQSPSSLSASVGDRVTITCRASKSVSTSGYSFMHWYQQKPGKAPKLLIYLASNLESGVPSRFSGSGSGTDFTLTISSLQPEDFATYYCQHSRELPWTFGQGTKVEIK
notes: also called H40/L40
Q: Does B7 bind [4]?
A: binds

B8: F19 (Fab, V domains shown)
VH: EVQLLESGGGLVQPGGSLRLSCAASGFTFSSYTMSWVRQAPGKGLEWVSAIDHGGGRTWYPDSVKGRFTISRDNSKNTLYLQMNSLRAEDTAVYYCARHRGNPFDYWGQGTLVTVSS
VL: DIQMTQSPSSLSASVGDRVTITCRASKSVSTSGYSFMHWYQQKPGKAPKLLIYLASNLESGVPSRFSGSGSGTDFTLTISSLQPEDFATYYCQHSRELPWTFGQGTKVEIK
notes: also called H41/L40
Q: Does B8 bind [4]?
A: binds

B9: F57 (Fab, V domains shown)
VH: EVQLLESGGGLVQPGGSLRLSCAASGFTFSSYTMSWVRQAPGKGLEWVSAIDHGGGQTLYPDSVKGRFTISRDNSKNTLYLQMNSLRAEDTAVYYCARHRGNPFDYWGQGTLVTVSS
VL: DIQMTQSPSSLSASVGDRVTITCRASKSVSTSGYSFMHWYQQKPGKAPKLLIYLASNLESGVPSRFSGSGSGTDFTLTISSLQPEDFATYYCQHSRELPWTFGQGTKVEIK
notes: also called H79/L40
Q: Does B9 bind [4]?
A: binds

B10: F243 (Fab, V domains shown)
VH: EVQLLESGGGLVQPGGSLRLSCAASGFTFSSYTMSWVRQAPGKGLEWVSYISSGGGNTYYPDSVKGRFTISRDNSKNTLYLQMNSLRAEDTAVYYCARHRGNPFDYWGQGTLVTVSS
VL: DIQMTQSPSSLSASVGDRVTITCRASKSVSTSGYSFMHWYQQKPGKAPKLLIYVGSRMAFGVPSRFSGSGSGTDFTLTISSLQPEDFATYYCQHSRELPWTFGQGTKVEIK
notes: also called H39/L124
Q: Does B10 bind [4]?
A: binds

B11: F256 (Fab, V domains shown)
VH: EVQLLESGGGLVQPGGSLRLSCAASGFTFSSYTMSWVRQAPGKGLEWVSYISSGGGNTYYPDSVKGRFTISRDNSKNTLYLQMNSLRAEDTAVYYCARHRGNPFDYWGQGTLVTVSS
VL: DIQMTQSPSSLSASVGDRVTITCRASKSVSTSGYSFMHWYQQKPGKAPKLLIYVGSRLDYGVPSRFSGSGSGTDFTLTISSLQPEDFATYYCQHSRELPWTFGQGTKVEIK
notes: also called H39/L137
Q: Does B11 bind [4]?
A: binds

B12: F279 (Fab, V domains shown)
VH: EVQLLESGGGLVQPGGSLRLSCAASGFTFSSYTMSWVRQAPGKGLEWVSYISSGGGNTYYPDSVKGRFTISRDNSKNTLYLQMNSLRAEDTAVYYCARHRGNPFDYWGQGTLVTVSS
VL: DIQMTQSPSSLSASVGDRVTITCRASKSVSYVRWSFMHWYQQKPGKAPKLLIYLASNLESGVPSRFSGSGSGTDFTLTISSLQPEDFATYYCQHSRELPWTFGQGTKVEIK
notes: also called H39/L160
Q: Does B12 bind [4]?
A: binds

B13: F291 (Fab, V domains shown)
VH: EVQLLESGGGLVQPGGSLRLSCAASGFTFSSYTMSWVRQAPGKGLEWVSYISSGGGNTYYPDSVKGRFTISRDNSKNTLYLQMNSLRAEDTAVYYCARHRGNPFDYWGQGTLVTVSS
VL: DIQMTQSPSSLSASVGDRVTITCRASKSVSHIRWSFMHWYQQKPGKAPKLLIYLASNLESGVPSRFSGSGSGTDFTLTISSLQPEDFATYYCQHSRELPWTFGQGTKVEIK
notes: also called H39/L172
Q: Does B13 bind [4]?
A: binds

B14: F292 (Fab, V domains shown)
VH: EVQLLESGGGLVQPGGSLRLSCAASGFTFSSYTMSWVRQAPGKGLEWVSYISSGGGNTYYPDSVKGRFTISRDNSKNTLYLQMNSLRAEDTAVYYCARHRGNPFDYWGQGTLVTVSS
VL: DIQMTQSPSSLSASVGDRVTITCRASKSVSHVRWSFMHWYQQKPGKAPKLLIYLASNLESGVPSRFSGSGSGTDFTLTISSLQPEDFATYYCQHSRELPWTFGQGTKVEIK
notes: also called H39/L173
Q: Does B14 bind [4]?
A: binds

B15: F295 (Fab, V domains shown)
VH: EVQLLESGGGLVQPGGSLRLSCAASGFTFSSYTMSWVRQAPGKGLEWVSYISSGGGNTYYPDSVKGRFTISRDNSKNTLYLQMNSLRAEDTAVYYCARHRGNPFDYWGQGTLVTVSS
VL: DIQMTQSPSSLSASVGDRVTITCRASKSVSTSGYSFMHWYQQKPGKAPKLLIYVADRVEVGVPSRFSGSGSGTDFTLTISSLQPEDFATYYCQHSRELPWTFGQGTKVEIK
notes: also called H39/L176
Q: Does B15 bind [4]?
A: binds

B16: F297 (Fab, V domains shown)
VH: EVQLLESGGGLVQPGGSLRLSCAASGFTFSSYTMSWVRQAPGKGLEWVSTIDRGGGSTWYPDSVKGRFTISRDNSKNTLYLQMNSLRAEDTAVYYCARHRGNPFDYWGQGTLVTVSS
VL: DIQMTQSPSSLSASVGDRVTITCRASKSVSTSGYSFMHWYQQKPGKAPKLLIYLASNLESGVPSRFSGSGSGTDFTLTISSLQPEDFATYYCQHSRELPWTFGQGTKVEIK
notes: also called H190/L40
Q: Does B16 bind [4]?
A: binds

B17: F298 (Fab, V domains shown)
VH: EVQLLESGGGLVQPGGSLRLSCAASGFTFSSYTMSWVRQAPGKGLEWVSAIDGGGGATYYPDSVKGRFTISRDNSKNTLYLQMNSLRAEDTAVYYCARHRGNPFDYWGQGTLVTVSS
VL: DIQMTQSPSSLSASVGDRVTITCRASKSVSTSGYSFMHWYQQKPGKAPKLLIYLASNLESGVPSRFSGSGSGTDFTLTISSLQPEDFATYYCQHSRELPWTFGQGTKVEIK
notes: also called H191/L40
Q: Does B17 bind [4]?
A: binds

B18: F299 (Fab, V domains shown)
VH: EVQLLESGGGLVQPGGSLRLSCAASGFTFSSYTMSWVRQAPGKGLEWVSVIDHGGGSTHYPDSVKGRFTISRDNSKNTLYLQMNSLRAEDTAVYYCARHRGNPFDYWGQGTLVTVSS
VL: DIQMTQSPSSLSASVGDRVTITCRASKSVSTSGYSFMHWYQQKPGKAPKLLIYLASNLESGVPSRFSGSGSGTDFTLTISSLQPEDFATYYCQHSRELPWTFGQGTKVEIK
notes: also called H192/L40
Q: Does B18 bind [4]?
A: binds

B19: F302 (Fab, V domains shown)
VH: EVQLLESGGGLVQPGGSLRLSCAASGFTFSSYTMSWVRQAPGKGLEWVSYISSGGGNTYYPDSVKGRFTISRDNSKNTLYLQMNSLRAEDTAVYYCARHRGNPFDYWGQGTLVTVSS
VL: DIQMTQSPSSLSASVGDRVTITCRASKSVSLIRWSFMHWYQQKPGKAPKLLIYLASNLESGVPSRFSGSGSGTDFTLTISSLQPEDFATYYCQHSRELPWTFGQGTKVEIK
notes: also called H39/L179
Q: Does B19 bind [4]?
A: binds
